Toff in the BRET G-protein activation assay, untethered co-expression of Rod6A and ArrWT (comparison for the Rod6A-ArrWT fusions) data for one substance are collected here from article PMC10730688.

The target in the assay is phosphonull human rod opsin 6A mutant (human) (UniProt P08100).

“human visual arrestin (rod arrestin, arrestin-1), wildtype (from UniProt P10523 1-405) (natural protein)” came in with a Toff in the BRET G-protein activation assay, untethered co-expression of Rod6A and ArrWT (comparison for the Rod6A-ArrWT fusions) of 1240 s.
